Measured values reported in patent US20170342151A1 (Memorial Sloan Kettering, published 2017).
Like-named read-outs stand apart in the source and are kept apart here.

Columns and labels:
[1] = biological target: T1, D2.8.11, a peptide epitope for murine 763 (human); test: SPR, Biacore T-100, D2.8.11 on CM5 chip, bivalent analyte model
T1 construct: also called antigen D2.8.11; peptide D2.8.11
T1 chain: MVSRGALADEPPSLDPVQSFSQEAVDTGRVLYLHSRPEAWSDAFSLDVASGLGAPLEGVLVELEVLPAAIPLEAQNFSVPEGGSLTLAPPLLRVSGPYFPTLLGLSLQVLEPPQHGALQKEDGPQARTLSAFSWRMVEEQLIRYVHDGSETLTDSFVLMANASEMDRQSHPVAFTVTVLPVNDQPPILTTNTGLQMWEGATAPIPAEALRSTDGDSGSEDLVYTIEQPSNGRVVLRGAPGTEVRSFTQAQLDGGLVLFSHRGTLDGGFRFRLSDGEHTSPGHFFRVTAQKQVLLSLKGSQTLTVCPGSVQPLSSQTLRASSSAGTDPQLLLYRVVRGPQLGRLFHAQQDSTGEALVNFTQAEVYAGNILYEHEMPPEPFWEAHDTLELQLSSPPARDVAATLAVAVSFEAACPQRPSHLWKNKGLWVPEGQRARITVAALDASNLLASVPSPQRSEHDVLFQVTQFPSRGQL
Method: (§1) CMS sensor chip (Research grade) and related reagents were purchased from Biacore USA (Piscataway, N.J.). […] The system first run 20× cycles of buffer only to get stable baseline levels. […] Samples (60 μL) were injected over the sensor surface at a flow rate of 30 μL/min over 2 min. Association time was set for one minute; dissociation time was set for from five minutes to 30 minutes. Following completion of the association phase, dissociation was monitored in HBS-E buffer containing 250 mM NaCl at the same flow rate. At the end of each cycle, the surface was regenerated using 50 μL 20 mM NaOH at a flow rate of 50 μL/min over one minute and 100 μL 4M MgCl₂ at a flow rate of 50 μL/min over two minutes.

[2] = biological target: T2, anti-763 idiotype antibody MK2-23; test: SPR, Biacore T-100, MK2-23 on CM5 chip, monovalent analyte model
T2 construct: Immobilized on the CM5 chip; also called anti-idiotype MK2-23
Method: as §1

[3] = biological target: T3, human chondroitin sulfate proteoglycan 4 (CSPG4) on cells (human, UniProt Q6UVK1 30-2322); test: ELISA on M14 cell-coated plates, HRP goat anti-human secondary
T3 construct: Target on CSPG4-positive M14 cells (FACS, cell ELISA) and in frozen human tissue sections (IHC); also called HMW-MAA; MCSP
T3 sequence (Q6UVK1 30-2322 limits assumed): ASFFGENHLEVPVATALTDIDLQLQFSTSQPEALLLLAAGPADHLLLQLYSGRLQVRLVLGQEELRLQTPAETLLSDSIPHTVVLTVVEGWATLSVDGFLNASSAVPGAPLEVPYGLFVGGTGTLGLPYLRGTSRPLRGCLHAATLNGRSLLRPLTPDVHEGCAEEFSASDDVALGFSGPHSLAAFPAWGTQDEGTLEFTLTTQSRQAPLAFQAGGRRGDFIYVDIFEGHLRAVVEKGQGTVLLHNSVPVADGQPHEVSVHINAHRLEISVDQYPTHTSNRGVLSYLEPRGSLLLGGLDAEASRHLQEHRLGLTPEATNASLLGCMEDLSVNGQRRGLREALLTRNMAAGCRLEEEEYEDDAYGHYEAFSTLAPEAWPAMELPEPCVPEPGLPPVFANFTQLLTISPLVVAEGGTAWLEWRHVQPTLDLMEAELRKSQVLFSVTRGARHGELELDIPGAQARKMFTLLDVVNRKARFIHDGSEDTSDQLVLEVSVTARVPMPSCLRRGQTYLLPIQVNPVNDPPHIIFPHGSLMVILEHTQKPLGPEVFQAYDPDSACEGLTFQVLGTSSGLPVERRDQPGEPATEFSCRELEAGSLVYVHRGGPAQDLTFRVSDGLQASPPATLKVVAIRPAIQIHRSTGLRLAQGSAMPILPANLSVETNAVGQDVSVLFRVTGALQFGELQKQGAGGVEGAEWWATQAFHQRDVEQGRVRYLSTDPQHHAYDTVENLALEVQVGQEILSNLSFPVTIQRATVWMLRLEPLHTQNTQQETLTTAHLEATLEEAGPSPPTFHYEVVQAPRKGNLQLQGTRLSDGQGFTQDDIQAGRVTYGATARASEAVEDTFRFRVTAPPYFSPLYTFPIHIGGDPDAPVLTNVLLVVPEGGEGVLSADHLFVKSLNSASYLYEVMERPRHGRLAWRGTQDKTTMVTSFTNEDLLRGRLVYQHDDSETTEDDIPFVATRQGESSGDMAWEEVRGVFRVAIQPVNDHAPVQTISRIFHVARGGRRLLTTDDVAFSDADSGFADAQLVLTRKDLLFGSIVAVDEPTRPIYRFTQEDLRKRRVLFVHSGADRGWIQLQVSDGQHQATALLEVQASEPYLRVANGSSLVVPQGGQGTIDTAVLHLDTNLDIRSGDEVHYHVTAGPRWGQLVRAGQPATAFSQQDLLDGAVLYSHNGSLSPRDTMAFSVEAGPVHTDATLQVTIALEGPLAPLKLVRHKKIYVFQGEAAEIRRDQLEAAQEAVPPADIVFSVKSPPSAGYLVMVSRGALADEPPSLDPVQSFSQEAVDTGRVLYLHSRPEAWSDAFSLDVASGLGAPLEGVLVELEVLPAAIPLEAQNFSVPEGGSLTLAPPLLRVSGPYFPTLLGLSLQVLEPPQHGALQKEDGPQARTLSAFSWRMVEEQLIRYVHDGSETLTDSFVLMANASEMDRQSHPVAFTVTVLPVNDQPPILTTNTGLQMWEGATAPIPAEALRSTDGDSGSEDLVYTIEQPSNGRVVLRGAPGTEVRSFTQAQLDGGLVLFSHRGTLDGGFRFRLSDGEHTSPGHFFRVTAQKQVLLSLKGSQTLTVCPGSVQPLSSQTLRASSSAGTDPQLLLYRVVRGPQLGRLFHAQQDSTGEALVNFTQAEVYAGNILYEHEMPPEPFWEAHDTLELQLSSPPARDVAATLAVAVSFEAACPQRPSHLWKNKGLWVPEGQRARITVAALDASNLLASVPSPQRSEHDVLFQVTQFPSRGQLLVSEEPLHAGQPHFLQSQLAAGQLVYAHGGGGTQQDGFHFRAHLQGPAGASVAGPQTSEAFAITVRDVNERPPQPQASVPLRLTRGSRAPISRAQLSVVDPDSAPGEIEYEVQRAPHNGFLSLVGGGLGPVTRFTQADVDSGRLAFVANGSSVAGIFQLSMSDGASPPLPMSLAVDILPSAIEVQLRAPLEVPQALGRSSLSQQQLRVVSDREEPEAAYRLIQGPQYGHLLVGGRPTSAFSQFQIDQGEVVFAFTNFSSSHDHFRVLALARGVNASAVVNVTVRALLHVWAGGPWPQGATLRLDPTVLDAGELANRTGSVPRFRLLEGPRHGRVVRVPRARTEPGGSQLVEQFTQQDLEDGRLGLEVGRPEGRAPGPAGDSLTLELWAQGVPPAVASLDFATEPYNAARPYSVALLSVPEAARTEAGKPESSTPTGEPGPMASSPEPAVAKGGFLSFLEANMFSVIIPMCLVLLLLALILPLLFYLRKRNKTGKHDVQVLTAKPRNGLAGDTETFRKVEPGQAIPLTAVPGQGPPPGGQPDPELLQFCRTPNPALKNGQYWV
Method: Hu763-IgG1 was also subjected to five cycles of a freeze and thaw process. […] Antigen binding was expressed as % of MFI of maximum binding at 5 μg. E, ELISA analysis of hu763-IgG1 and hu763-IgG1n on M14 cells coated plates. Binding was detected with HRP conjugated goat anti-human secondary antibody. Hu763-IgG1n was subjected to five cycles of a freeze and thaw process.
An ELISA method using coated M14 as antigen was also used to assay hu763-IgG1 and hu763-IgG1n binding (FIG. 3E). […] Hu763-IgG1n still bound to M14 cells well after subjected to five cycles of freezing and thawing process.

[4] = biological target: T2, anti-763 idiotype antibody MK2-23; test: SPR, Biacore T-100, MK2-23 on CM5 chip, monovalent analyte model; remark: listed apart in the source
Method: as §1

[5] = biological target: T1, D2.8.11, a peptide epitope for murine …; test: SPR, Biacore T-100
[6] = biological target: CD3 antigen (surface plasmon resonance); test: SPR, Biacore, two state reaction model

B1: hu763IgG1n H2-L2, humanized 763 H2 and L2 in IgG1 format with variant glycosylation (antibody)
heavy: not shown
light: EIVLTQSPATLSVSPGETVTLSCRASQTIYKNLHWYQQKSGLSPRLLIKYGSDSISGIPARFSGSGSGTDYTLTINSVEPEDEGIYYCLQGYSTPWTFGQGTKLEIKRTVAAPSVFIFPPSDEQLKSGTASVVCLLNNFYPREAKVQWKVDNALQSGNSQESVTEQDSKDSTYSLSSTLTLSKADYEKHKVYACEVTHQGLSSPVTKSFNRGEC
modifications: variant Fc glycosylation from expression in GnT1-deficient CHO cells (78.3% mannose, 20.5% N-acetyl glucosamine, 1.2% glucose; no fucose)
notes: also called hu763-H2L2-IgG1n
[1]
  Kd: 1.15 nM
  koff: 3.28e-05 s⁻¹
  kon: 28500 M⁻¹ s⁻¹
[2]
  Kd: 0.449 nM
  koff: 7.54e-05 s⁻¹
  kon: 168000 M⁻¹ s⁻¹
[3]
  binding result: binds

B2: hu763IgG4 H2-L2, humanized 763 H2 and L2 in IgG4 format (antibody)
heavy: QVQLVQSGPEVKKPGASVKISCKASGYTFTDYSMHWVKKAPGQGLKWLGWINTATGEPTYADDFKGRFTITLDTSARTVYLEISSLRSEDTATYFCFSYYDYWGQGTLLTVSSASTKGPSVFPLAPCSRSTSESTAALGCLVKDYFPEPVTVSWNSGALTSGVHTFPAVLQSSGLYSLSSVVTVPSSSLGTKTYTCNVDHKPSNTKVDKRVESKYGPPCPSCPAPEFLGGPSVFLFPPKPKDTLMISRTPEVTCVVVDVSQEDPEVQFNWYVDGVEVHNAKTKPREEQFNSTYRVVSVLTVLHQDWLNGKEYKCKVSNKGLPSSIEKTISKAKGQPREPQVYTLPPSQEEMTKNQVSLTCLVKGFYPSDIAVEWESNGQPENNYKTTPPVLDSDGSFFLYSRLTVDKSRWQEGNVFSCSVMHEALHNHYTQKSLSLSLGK
light: B1 light
[1]
  Kd: 1.22 nM
  koff: 3.5e-05 s⁻¹
  kon: 28700 M⁻¹ s⁻¹
[2]
  Kd: 0.48 nM
  koff: 8.01e-05 s⁻¹
  kon: 167000 M⁻¹ s⁻¹

B3: murine anti-CSPG4 antibody 763.74 (antibody, V domains shown)
VH: QIQLVQSGPELKKPGETVKISCKASGYTFTDYSMHWVKKTPGKGLKWLGWINTATGEPTYADDFKGRFAISLETSARTVYLQINNLRNEDTATYFCFSYYDYWGQGTTLTVS
VL: DIKLSQSPSILSVTPGETVSLSCRASQTIYKNLHWYQQKSHRSPRLLIKYGSDSISGIPSRFTGSGSGTDYTLNINSVKPEDEGIYYCLQGYSTPWTFGGGTKLEIK
notes: also called m763
[1]
  Kd: 1.34 nM
  koff: 3.89e-05 s⁻¹
  kon: 29000 M⁻¹ s⁻¹
[2]
  Kd: 0.582 nM
  koff: 8.5e-05 s⁻¹
  kon: 146000 M⁻¹ s⁻¹
[4]
  Kd: 2.09 nM
  koff: 0.000163 s⁻¹
  kon: 78200 M⁻¹ s⁻¹
[5]
  Kd: 1.3 nM
  kon: 29600 M⁻¹ s⁻¹

B4: hu763IgG1 H2-L2, humanized 763 H2 and L2 in IgG1 format (antibody)
heavy: not shown
light: B1 light
notes: also called parental hu763
[1]
  Kd: 1.29 nM
  koff: 3.81e-05 s⁻¹
  kon: 29600 M⁻¹ s⁻¹
[4]
  Kd: 1.75 nM
  koff: 0.000181 s⁻¹
  kon: 103000 M⁻¹ s⁻¹

B5: ch763IgG1, chimeric 763 HC and LC in IgG1 format (antibody, V domains shown)
VH: QIQLVQSGPELKKPGETVKISCKASGYTFTDYSMHWVKKTPGKGLKWLGWINTATGEPTYADDFKGRFAISLETSARTVYLQINNLRNEDTATYFCFSYYDYWGQGTTLTVSA
VL: DIKLSQSPSILSVTPGETVSLSCRASQTIYKNLHWYQQKSHRSPRLLIKYGSDSISGIPSRFTGSGSGTDYTLNINSVKPEDEGIYYCLQGYSTPWTFGGGTKLEIKR
[1]
  Kd: 84 nM
  koff: 0.00295 s⁻¹
  kon: 35100 M⁻¹ s⁻¹
[4]
  Kd: 1.89 nM
  koff: 0.000339 s⁻¹
  kon: 179000 M⁻¹ s⁻¹

B6: hu763-HC-OKT3, humanized 763 IgG1 with huOKT3 scFv on the C-terminus of the heavy chain (bispecific antibody)
heavy: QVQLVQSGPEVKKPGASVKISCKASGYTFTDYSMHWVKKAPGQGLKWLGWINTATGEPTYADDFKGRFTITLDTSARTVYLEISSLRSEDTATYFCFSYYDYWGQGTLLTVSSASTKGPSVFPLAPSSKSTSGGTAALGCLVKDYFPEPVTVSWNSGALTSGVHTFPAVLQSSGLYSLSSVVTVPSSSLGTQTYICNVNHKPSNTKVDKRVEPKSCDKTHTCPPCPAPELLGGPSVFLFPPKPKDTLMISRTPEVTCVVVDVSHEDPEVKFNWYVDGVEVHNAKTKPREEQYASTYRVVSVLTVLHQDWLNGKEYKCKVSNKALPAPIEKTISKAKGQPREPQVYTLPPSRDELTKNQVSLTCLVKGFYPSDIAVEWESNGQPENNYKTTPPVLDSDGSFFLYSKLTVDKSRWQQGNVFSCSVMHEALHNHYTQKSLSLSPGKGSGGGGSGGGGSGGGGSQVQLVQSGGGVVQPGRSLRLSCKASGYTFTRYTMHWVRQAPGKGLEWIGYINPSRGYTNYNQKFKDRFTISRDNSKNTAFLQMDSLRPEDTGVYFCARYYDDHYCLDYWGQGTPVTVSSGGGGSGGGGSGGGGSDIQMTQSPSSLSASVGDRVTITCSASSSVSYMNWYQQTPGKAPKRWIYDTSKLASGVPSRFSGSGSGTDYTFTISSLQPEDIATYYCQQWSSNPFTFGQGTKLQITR
light: B1 light
notes: IgG-scFv format, aglycosylated Fc (N297A); also called hu763-HC-huOKT3; hu763-BsAb
[6]
  Kd: 231 nM
  koff: 0.0696 s⁻¹
  kon: 302000 M⁻¹ s⁻¹
